The target of this test is T1, GST-HCCS (human holocytochrome c synthase, GST-tagged) (human, UniProt P53701 1-268).
T1 construct: human HCCS (holocytochrome c synthase), recombinant, from pGEX GST:HCCS; Carries non-covalent heme liganded to His154 (about 10% occupied as purified, about 30% after heme loading); also called holocyt c synthase; mitochondrial cyt c synthase
T1 sequence (looked up): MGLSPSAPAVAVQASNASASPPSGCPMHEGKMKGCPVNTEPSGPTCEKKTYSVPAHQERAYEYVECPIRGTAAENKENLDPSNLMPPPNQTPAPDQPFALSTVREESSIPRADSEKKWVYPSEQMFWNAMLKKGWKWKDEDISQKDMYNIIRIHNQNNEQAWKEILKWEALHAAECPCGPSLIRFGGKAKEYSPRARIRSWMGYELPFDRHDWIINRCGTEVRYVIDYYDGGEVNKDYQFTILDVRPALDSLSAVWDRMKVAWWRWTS
The test is described as follows: UV-vis absorption spectroscopy; anaerobic in vitro reaction of purified HCCS with peptide, 5 mM DTT, 37°C, 1 hr; reduced alpha peak at 552-555 nm read as heme-attached peptide still bound to HCCS (550 nm for a free heme-attached peptide). The settings on record: both partners purified.

Positions of bridges follow the written chain, without caps; N, C: chain ends. No end group written: not given here.

B1: heme-attached 16mer (product of the HCCS reaction) (peptide)
peptide: KGKKIFIMKCSQCHTV
modifications: linker 10-13 via heme; also: biotin label, position not given here
notes: stretch of cytochrome c with alpha helix 1 and CXXCH; The product of m6 in the HCCS reaction; source: synthetic peptide (RS-synthesis), heme attached in vitro by GST-HCCS
B1: the binding result is “binds”.

The values are drawn from article PMC8112865, “In vitro reconstitution reveals major differences between human and bacterial cytochrome c synthases” (eLife, 2021).
